From patent US9931401B2, “Combination comprising anti-fibroblast growth factor receptor 2 (FGFR2) antibody and a tyrosine kinase inhibitor” (Daiichi Sankyo Company, Limited, priority 2013, dated 2018)
Residue numbers refer to the chain shown, from its start.

B1: FR2-10: anti-human FGFR2 rat monoclonal antibody obtained by the method described in Example 1; VH SEQ ID NO: 12, VL SEQ ID NO: 21 (antibody, listed as Rattus norvegicus, V domains shown)
VH: EVQLVESGGGLVQPGRSLKLSCVASGFRFNDFWMTWIRQAPGKGLEWVASITYTGDNTYYAGSVKGRITISRDNAKSTLYLQMNSLRSEDTATYYCTRDDYGGYSPYYMDAWGQGTSVTVSS
VL: DIQMTQSPSSLSAFLGDRVTITCRASQDIGNYLRWFQQKPGKSPRLMIYGATNLANGVPSRFSGSRSGSDYSLTINNLESEDMAIYYCLKHNEYPFTFGSGTKLEIKRA
B2: FR2-13: anti-human FGFR2 rat monoclonal antibody obtained by the method described in Example 1; VH SEQ ID NO: 14, VL SEQ ID NO: 24 (antibody, listed as Rattus norvegicus, V domains shown)
VH: QVKLLQSGAELVKPGASVKLSCKTSGFTFSTSYMSWLKQVPGPSIEWIGWIYAGDGGTKYNQKFKGKATLTVDKSSSTAYMDLSSLTSEDAAVYFCATDGYGDWFAYWGQGTLVTVSS
VL: DIQMTQSPASLSASLGETVTIECRASEDIYSNLAWYQQKPGNSPQLLIYDANILADGVPSRFSGSGSGTQYSLKINSLQSEDVASYFCQQYNNYPPFTFGVGTKLELKRA
B3: FR2-14: anti-human FGFR2 rat monoclonal antibody obtained by the method described in Example 1; VH SEQ ID NO: 16, VL SEQ ID NO: 26 (antibody, listed as Rattus norvegicus, V domains shown)
VH: B2 VH with I45T, S75F, A106T
VL: B2 VL with V101A

The molecules below were run against T1, human FGFR2 (Homo sapiens, UniProt P21802) (assay: Flow cytometry, selective binding to human FGFR expression vector-transfected HEK293T cells). Conditions: hybridoma culture supernatant, FGFR1 IIIc, FGFR2 IIIb, FGFR3 IIIb, FGFR4 transfectants.
T1 construct: expressed in transfected cells; host or cells: HEK293T cells
Experimental: HEK293T cells were inoculated at a density of 5×10^4 cells/cm^2 to a 225-cm^2 flask (manufactured by Sumitomo Bakelite Co., Ltd.) and cultured overnight at 37° C. under 5% CO2 conditions in a DMEM medium containing 10% FBS. On the next day, the pcDNA-DEST40-FGFR2 IIIb IgD1-deletion mutant deficient in the N-terminal IgD1 domain or a control pcDNA-DEST40 was transfected to the HEK293T cells using Lipofectamine 2000, and the cells were further cultured overnight at 37° C. under 5% CO2 conditions. On the next day, the expression vector-transfected HEK293T cells were treated with TrypLE Express (manufactured by Life Technologies Corp.), washed with DMEM containing 10% FBS, and then suspended in PBS containing 5% FBS. The obtained cell suspension was used in flow cytometry analysis.
cDNAs encoding a human FGFR1 IIIc variant protein (isoform 1: NP_075598), a human FGFR3 IIIb variant protein (isoform 3: NP_001156685), a human FGFR3 IIIc variant protein (isoform 1: NP_000133), and a human FGFR4 protein (isoform 1: NP_002002) were cloned into pcDNA-DEST40 vectors to construct vectors pcDNA-DEST40-FGFR1 IIIc, pcDNA-DEST40-FGFR3 IIIb, pcDNA-DEST40-FGFR3 IIIc, and pcDNA-DEST40-FGFR4 for expression of each variant protein, respectively.
Each human FGFR expression vector constructed in Examples 1)-3-1 and 2)-1-1 was transfected to HEK293T cells by the method shown in Example 1)-5-1. The cell suspension was centrifuged to remove the supernatant. Then, these various human FGFR expression vector-transfected HEK293T cells and the pcDNA-DEST40-transfected HEK293T cells were separately suspended by the addition of the hybridoma culture supernatant containing the FR2-10, FR2-13, or FR2-14 antibody and left standing at 4° C. for 1 hour. […] The data was analyzed using Flowjo (manufactured by Tree Star Inc.). After removal of 7-aminoactinomycin D-positive dead cells by gating, the FITC fluorescence intensity of live cells was plotted to a histogram to calculate average fluorescence intensity (MFI).

T1 sequence (P21802 22-822 isoform P21802-3): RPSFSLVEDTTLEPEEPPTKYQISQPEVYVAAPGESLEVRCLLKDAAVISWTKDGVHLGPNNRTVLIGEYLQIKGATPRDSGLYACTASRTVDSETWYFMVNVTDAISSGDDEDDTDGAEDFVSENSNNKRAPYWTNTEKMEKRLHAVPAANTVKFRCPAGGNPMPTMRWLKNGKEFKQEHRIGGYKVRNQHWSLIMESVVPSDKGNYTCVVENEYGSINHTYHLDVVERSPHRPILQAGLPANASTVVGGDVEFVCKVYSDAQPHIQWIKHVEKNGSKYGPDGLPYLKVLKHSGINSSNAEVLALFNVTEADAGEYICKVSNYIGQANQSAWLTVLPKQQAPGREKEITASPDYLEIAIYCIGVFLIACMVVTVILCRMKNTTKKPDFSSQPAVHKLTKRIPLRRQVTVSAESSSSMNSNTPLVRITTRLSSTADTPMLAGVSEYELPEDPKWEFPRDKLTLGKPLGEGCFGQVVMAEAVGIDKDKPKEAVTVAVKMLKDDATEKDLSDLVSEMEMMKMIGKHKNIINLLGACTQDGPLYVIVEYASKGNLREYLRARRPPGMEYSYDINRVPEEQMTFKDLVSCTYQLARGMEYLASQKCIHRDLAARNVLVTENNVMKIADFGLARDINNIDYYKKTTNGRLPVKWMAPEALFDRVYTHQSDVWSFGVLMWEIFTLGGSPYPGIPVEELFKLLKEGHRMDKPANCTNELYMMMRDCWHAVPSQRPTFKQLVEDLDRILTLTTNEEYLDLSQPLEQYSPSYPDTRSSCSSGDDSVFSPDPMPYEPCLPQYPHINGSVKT

Molecule	selective binding activity against human FGFR2
B1	selectively bind to human FGFR2 IIIb
B2	selectively bind to both human FGFR2 IIIb and FGFR2 IIIc
B3	selectively bind to both human FGFR2 IIIb and FGFR2 IIIc

What follows are molecules tested against T2, human FGFR2 IIIb (Homo sapiens, UniProt P21802) (assay: Elk1 luciferase reporter gene assay, FGFR2 IIIb-expressing 293α cells, ligand FGF7). Conditions: antibody preincubated 1 hour; FGF7 10 ng/ml, 6 hours.
T2 construct: expressed in transfected cells; host or cells: 293α cells (HEK293 stably transfected with integrin αv and β3)
Assay type: cell-based
Experimental: In order to evaluate the signal-neutralizing effect of the anti-FGFR2 antibody produced by each obtained hybridoma, an Elk1 luciferase reporter gene assay system for detecting ERK (extracellular signal-regulated kinase) activation induced by FGFR2 activation via ligand FGF7 stimulation was constructed by a method shown below and used in the evaluation of the obtained antibody for its effect.
The Elk1 luciferase reporter gene assay was carried out using each hybridoma culture supernatant selected in Example 1)-5. A cell line 293α, which was HEK293 cells stably transfected with integrin αv and integrin β3 expression vectors, was transiently cotransfected with pcDNA-DEST40-FGFR2 IIIb or pcDNA-DEST40, pFA2-Elk1 (manufactured by Stratagene Corp.), pFR-Luc2CP, and pGL4.74[hRluc/TK] (manufactured by Promega Corp.) according to transfection procedures using Lipofectamine 2000 (manufactured by Invitrogen Corp.), inoculated to a white 96-well cell culture plate (manufactured by Corning Inc.), and cultured overnight at 37° C. under 5% CO2 conditions. On the next day, the culture supernatant was removed, and the hybridoma culture supernatant diluted 5-fold with DMEM containing 5% FBS was added at a concentration of 50 μl/well to the plate. After culture at 37° C. for 1 hour under 5% CO2 conditions, a ligand human FGF7 (manufactured by R&D systems, Inc.) was added at a final concentration of 10 ng/ml to each well. After incubation for 6 hours, cell lysates were prepared and assayed for firefly luciferase activity (specific signal) and Renilla luciferase activity (signal for normalization) using Dual-luciferase reporter assay system (manufactured by Promega Corp.). The firefly/Renilla ratio was calculated to normalize data on each well.
In order to evaluate the signal-neutralizing effects of the obtained antibodies by the Elk1 luciferase reporter gene assay, 293α cells were cotransfected with pcDNA-DEST40-FGFR2 IIIb or pcDNA-DEST40-FGFR2 IIIc constructed in Example 1)-3-1, pFA2-Elk1 (manufactured by Stratagene Corp.), pFR-Luc2CP, and pGL4.74[hRluc/TK] (manufactured by Promega Corp.) by the method shown in Example 1)-6-2, and cultured overnight at 37° C. under 5% CO2 conditions. On the next day, the culture supernatant was removed, and the cells were then preincubated for 1 hour with the rat FR2-10, FR2-13, or FR2-14 antibody diluted with DMEM containing 2% FBS. Subsequently, a ligand human FGF7 (manufactured by R&D systems, Inc.) or human FGF9 (manufactured by PeproTech Inc.) was added at a final concentration of 10 ng/ml to each well. After incubation for 6 hours, firefly luciferase activity (specific signal) and Renilla luciferase activity (signal for normalization) were assayed using Dual-Glo Luciferase Assay System (manufactured by Promega Corp.). The firefly/Renilla ratio was calculated to normalize data on each well.
In order to evaluate the signal-neutralizing effects of the obtained antibodies by the Elk1 luciferase reporter gene assay, 293α cells were transfected with pcDNA-DEST40-FGFR2 IIIb or pcDNA-DEST40-FGFR2 IIIc constructed in Example 1)-3-1 by the method shown in Example 1)-6-2, and cultured overnight at 37° C. under 5% CO2 conditions. On the next day, the culture supernatant was removed, and the cells were then preincubated for 1 hour with the cFR2-10, cFR2-13, or cFR2-14 antibody (final concentration: 0.05 to 5 μg/ml) diluted with DMEM containing 2% FBS. Subsequently, a ligand human FGF7 (manufactured by R&D systems, Inc.) or human FGF9 (manufactured by PeproTech Inc.) was added at a final concentration of 10 ng/ml to each well. After incubation for 6 hours, cell lysates were prepared and assayed for firefly luciferase activity (specific signal) and Renilla luciferase activity (signal for normalization) using Dual-luciferase reporter assay system (manufactured by Promega Corp.). The firefly/Renilla ratio was calculated to normalize data on each well. […]

T2 sequence (P21802 22-822 isoform P21802-3 limits assumed): as the sequence (P21802 22-822 isoform P21802-3) above

Molecule	ligand FGF7 dependent reporter activation in the FGFR2 IIIb-expressing cells
B1	inhibited
B2	inhibited
B3	inhibited

Same assay, conditions: hybridoma culture supernatant diluted 5-fold; FGF7 10 ng/ml

Molecule	ligand FGF7 dependent reporter activation in FGFR2-expressing HEK293 reporter cells (screening)
B1	reduced ligand FGF7 dependent reporter activation to a ligand-free level
B2	reduced ligand FGF7 dependent reporter activation to a ligand-free level
B3	reduced ligand FGF7 dependent reporter activation to a ligand-free level
